From the nanobody polyreactivity screen of Harvey et al. (2022)

Test: yeast display, Sf9 membrane polyspecificity reagent, FACS + sequencing; frameworks hold sequencing errors
Procedure, shortened: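 Synthetic nanobody libraries on Saccharomyces cerevisiae BJ5465 were galactose-induced for 36–48 hours, stained 1 hour at 4 °C with 10% biotinylated, detergent-solubilized Sf9 membrane reagent and enriched on streptavidin microbeads. FACS then separated cells into low and high (top ~1%) gates by anti-HA (expression) and streptavidin (reagent binding) fluorescence. Genes were colony-PCR amplified, MiSeq 2 × 250 sequenced and CDR-length filtered. A clone's polyreactivity label is that of its gate of origin.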

Sequence | polyreactivity (PSR sort gate)
QVQLVESGGGLVQAGGSLRLSCAASGFIFGDYAMGWYRQAPGKERELVAAINYSGGSTYYADSVKGRFTISRDNAKNTVYLQMNSLKPEDTAVYYCAALIYGLVGWGQGTQVTVSS | low polyreactivity
QVQLVESGGGLVQAGGRLRVSCAASGSTFAWYAMGWYRQAPGKERELVAAISSGGRTYYADSVKGRFTISRDNAKNTVDLQMNSLKREDTAVFSCNADDWAYGMDYWGQGSQVTVSS | low polyreactivity
QVQLVESGGGLVQAGGSLRLSCAASGSTFDLYAMGWYRQAPGKERELVAGISRGGSTYYADSVKGRFTISRDNAKNTVYLQMNSLKPEDTAVYYCAAYFRYRSSRYGYWGQGTQVTVSS | high polyreactivity
QVQLVESGGGLVQAGGSLRLSCAASGSTFETYAMGLYRKAPGKDRELVAAITWAGDTSYADSVKGRFTISRDNAKHTVYLQMNSLKPEDTAVYYCAKDNGRAYFGRSPYDYWGQGTQVTVTS | low polyreactivity
QVQLVESGGGLFQAGGSLRLSCAASGSIFQYYTMRWYRQAPGKERELVATINNNGGRTYYADSVKGRFTISRDNAMNSVYFQMYSLKPVDTAVYYCATDIWRYYRGWEDYWGQGTEVTVSS | high polyreactivity
QVQLEESGGGLVQAGGSLRISSAASGSTLGSNAMGWYRQAPGKEMELVAAITWSGGTTYYADSVKGRFTIARDNPKNTVSLQMNSLKPEDTAVYYCATGQSVIYRYEYWGQGTQVTVSS | low polyreactivity
QVQLVESGGGLVQAGGSLRLSCAASGRTIYRYAMGWYRQAPGKERELVAAISRRGGSTYYADSVKGRFTISRDNAKNTVYLHMNSLKPEDSAVYYCNAPFGDVYRTDDYWGQGTQVTVSS | high polyreactivity
QVQLVESGGGLVQAGGSLRLSCAASGSTFYTYTAMGWYRQAPGKERELVAAITWRGGSTYYADSVKGRFTISRDNAKNTVYLHMNRLKPEDTSGYYCAADCVMTWWAYDYWGQGTQVTVSS | high polyreactivity
QVQLVESGGGLVQAGGSLRLSCAASGSIFRGYTMGWYRQAPGKERELVAAISRSGGSTYYADSVKGRFTISRDNAKNTVYLQMNSLKPEDTAVYYCNVVYFVTTSPGYDYWGQGTQVTVSS | high polyreactivity
QVQLVESGGGLFQAGGSLRLSCAASGIIFRYYAMGWSRQAPGKEREFVASINFSGSSTYYADSVKGRFTISRDKAKNTVYLQMNSLKPEDTAVYYCAAGRRWLYDYWGQGTQVTVSS | high polyreactivity
QVQLVESGGGLVQAGGSLRLSCAASGRIGVNAMGWYRPAPGKERELVAAITGGASTYYADSVKGRFTISRDNAKNTVYLQMNSLKPEDTAVYYCNATGEYFGYLDLDYDYWGQGTQVTVSS | low polyreactivity
QVQLVESGGGLVQPGGSLRLSCAASGGTFQPNAMVWYRQAPGKERELVAAISWSDGSTYYADSVKGRFTISLDNAKNTVYLQMNSLKPVDTAVYYCAADFTYYDSPYRDYNYESWGQGTQVTVSS | low polyreactivity
QGQLVESGGGLDQAGGSLRLSCAASGSTFPVYAMGLYRQAPGKDRELVAAITSGVSTNYADSVKGRFTISRDNAKNTVYVQKNSMKPEDTAVYYCAKEFGLLPIRDYYWGQGTQVTESS | low polyreactivity
QVQLVESGGGLVQAGGSLRLSCAASGSNFDDNAMGWYRQAPGKERELVAAITRSGGSTYYADSVKGRFTISRDNAKNTVYLQMISLKPEDTAVYYCAAAAYHSYGPGKRFYYWGQGSQVTVSS | high polyreactivity
QVQLVESGGGLVQAGGSLRLSCAASGRTFALYAMGWYRQAPGKERELVAAITSGGSTNYADSVKGRFTISRDNAKNTVYVQMNSLKPEDTAVYYCNADDSSKDVIGLDYWGQGTQVTVSS | low polyreactivity
QVQLVESGGGLVQAGGSLRLSCAASGSIFYRYAMGWYRQAPGKERELVAVISTGGSTYYADSVKGRFTISRDNAKNTVYLQMNSLKPEDTAVYYCNVLYYSRYAPYGRYGYWGQGTQVTVSS | high polyreactivity
QVQLVESGGGLVQAGGSLRLSCAASGSTFSYYAMGWYRQAPGKERELVAAITSSGGRTYYADSVKGRFTISRDNAKYTVYLQMNSLKPEDTAVYYCATRKPRYQRAFDSWGQGTQVTVSA | high polyreactivity
QVQLVESGGCLVQAGGSLRLSCAASGSTFTLYAMGWYRPAPGKERELVAAIRRGGSTNYADSVKGRFTISRDNAKNTDYLQMNSLKPEDTAVYYCAADSYTSRSRYSGSGGYDYGGQGTQVTVSS | low polyreactivity
QVQLVESGGGLVQAGGSLRLSCAASGFTFFIYAMGWYRQAPGKERELVAAISWRGDRTYYADSVKGRFTISRDNAKNTVYLQMNSMKPEDTAVYYCAKSVWRRVYYARYDDRHNYWGQGTQVTVSS | high polyreactivity
QVQLVESGGGLVQAGGSLSLSCAASGSTFYHYAMGWYRQAPGKERELVAAISSSGGRTYYADSVKGRFTISRDNAKYTVYLQMNSLKPEDTAVYYCAARAKTSGSIEDYWGQGTQVTVSS | high polyreactivity
QVQLVESGGGIVQAGGSLRLSCAASVFTFSDYTMGWYRQAPGKERELVAAINRGGNTYYADSVKGRFTISRDNAKNTVYLQMNSLKPEDTALYYCAAASYYAPYYWGQCTQVTVSS | high polyreactivity
QVQLQDSGGGLVQAGGSLRLSCAASGTISYRYRMGWYRQAPRKELELVAGIRFGSITYYADSVKGRFTISRDNAKNTVYLQMNSLKPEDIAVYYCAVYQKSYRFFPYWGQGTQVTVSS | high polyreactivity

Sequence | polyreactivity (PSR sort gate)
QVQLVESGGGLVQAGGSLRLSCAASGSIFKVYAMGWYRQAPGKEREIVAAITSSDSNTNYADSVKGRFTISRDNEKNTVYLQMNSLKPEDTAVYYCNARIYTRRYVPHYGFNYWGQGTQVTVSS | low polyreactivity
QVQLVESGGGLVQAGRSLRLSCAASGFTFRWYGMGWYRQAPGKERELVAAISWSGGTTYYADSVKGRFTISRDNAKKTVYLQMNSLKAEDTAVYYCAASFQTFASRYDYWGQGTQVTVSS | high polyreactivity
QVQLVESGGGLVQAGGSLRLSCAASGSTYQNAMGWYRQAPGKEREFVAAISWSGGSTYYADSVKGRFTISRDNAKNTVYLQMNSLKPEDTAVYYCAAYSYFSPRYDYWGQGTQVTVSS | high polyreactivity
QVQLVESGGGLVQAGGTLRLSCAASGYIFFPYAMGWYRQAPGKERELVAAISGSGTSTYYADSVKGRFTISRDNAKNTVYLQMNSLKPEDTAVYYCAAKYGQYDYDYWGQGTQVTVSS | low polyreactivity
QVQLVESGGGLVQAGGSLRLSCAPSGRIFAYNTMGGYRQAPGKERELVAVSTSGGSTNYADSVKRRFTISRDNAKNTVYLQMNSLKTEDTAVYYCATLETTGVNYWGQGTQVTVSS | high polyreactivity
QVQLVESGGGLVQAGGSLRLSCAASGRIFNGNALGWYRQAPGNERELVAAISSGGRTYYADSVKGRFTISRDNAKNTVYLQMNSLKPEDTAVYYCNARGYSGRVIPEYYYWGQGTQVTVSS | high polyreactivity
QVQLVESGGGLVQAGGSLRLSCAASGSTFYYNAMGWYRQAPGKERELVAAITSSGGRTYYADSVKGRFTISRDNAMNTVYLQMNSLKPEDTAFYYCAKREASSRWPYDYWGQGTQVTVSS | low polyreactivity
QVQLVESCGGLVQAGGSLRLSCAASGFICNGYTMGWSRQAPWKERELVAAISGSGGRTYYADSVKGRFTISRDNAKKTVYLQMNSLKPEDTAVYYCAASNWHSRGSGEYYWGQGTQVTVSS | high polyreactivity
QVHLVESGGGLVQAGGSLRLSCAASGRLFGVYVMGWYRQAPGKERELVAAISWSGSHTYYADSVKGRFTISRDNAKNTVYLQMNSLKPEDTEVYYCNADSYPDYTGPGLDWYDYWGQGTQVTVSS | low polyreactivity
QVQLVESGGGLVQAGGSLRLSCAASGSTFANYAMGWYRQAPGKERELVAGISWRGGRTYYADSVKGRFTISRDNAKNTVYLQMNSLKPEDTAVYYCAAEVLKTRWSYDYWGQGTQVTVSS | high polyreactivity
QVQLVESGGCLVQAGGSLRLSCAASGYIFDHYAMGCYRQAPGKERELVAAISRSAGSTYYADSVKGRFTISRDNAKNTVYLQMNSLKPEDTAVYYCNAVVAVRSWRKYEYWGQGTQVTVSS | high polyreactivity
QVQLGESGGGLVQAGGSLRFSCAASGRPFFVYGMGWSRQAPGKERELVAAISWNGGRTYYADSVKGRFTISRDKAKNTVYLQMKSLKPEDTAVYYCNARARDYTGPSSPIFYYWGQGTQVTVSS | low polyreactivity
QVQLVESGGGLVQAGGSLRLSSAASGSIFYNNAMGWYRQAPGKERELVAAISGSGDSTYYADSVKGRFTISRDNAKNTVYLQMNSLIPDDTAVYYCNATPYVLWWSDMDYWGQGTQVTVSS | high polyreactivity
QVQLVESGGGLVNAGGSLRLSCAASGITFWGYAMGWYRQAPGKERELVAAITSGGTTYYADSVKGRFTISRDNAKNTVYLQMNSLKPEDTAVYYCNARYPSADDWGQGTQVTVSS | high polyreactivity
QVQLVESGGGLVQAGGSLRLSCAASGRIFDVYAMGWYRQAPGKERELVAAITWSGTSTYYADSVKGRFTISRDNAKNTVYLQMNSLKPEDTAVYYCNALSYGRYLNYRGGMDYWGQGTQVTVSS | high polyreactivity
QVQLVESGGSLVKAGGSLRLSCAASGRIFGSNTIGWYRPEPGKERELVAAITSRGGSTYYADSVKGRFTISRDNAKNTVYLQMNSLKPEDTSVYYCAAKTVLFIFGYWGQGTQVSVSS | high polyreactivity
QVQLVESGGGLVQAGGSLRLSCAASGSIFTSNVMAWYRQAPGKERELVAAITITGTTTYADSVKGRFTISRDNAKNTVYLQMNSLIPEDTAVYYCAKDPVELSPADWRADYDYWGQGTQVTVSS | low polyreactivity
QVQLVESGGGLVQAGGSLRLSCAASGRTFYWNAMGWYRQAPGKERELVAGISRGGGITYYADSVKGRFTISRDNAKYTVYLQMNSLKPEDTAVYYCNSRAGRQLARYGYWGQGTQVTVSS | high polyreactivity
QVQLVESGGGLVQAGGSLRLSCAASGSTFVYYDMGWYRQAPGQERELVATINGSGSRTNYADSVKGRFTISRDYAKNTVYLQMNSLKPEDTAVYYCAADYISYLVAGGYEDDYWGQVTQVTVSS | low polyreactivity
QVQLVESGGGLVQAGGSLRLSCAASGLTFYTYPMGWYRQAPGKERELVAAISSSTGSTYYADSVKGRFTISRDNAKNTVYLQMNSLKPEDSAVYYCAAESYWGVNYWGQGTQVTVSS | high polyreactivity
QVQLVESGGGLVQAGGSLRLSCAASGRIFYWYAMGWYRQAPGKERELVAAISGSDGSTYYADSVKGRFTISRDNAKNTVYLQMNSLKPEDTAVYYCADEGSYPRMDYWGQGTQVTVSS | low polyreactivity
